The record followed here is patent publication US20110195900A1, “PEPTIDIC PTH RECEPTOR AGONISTS” (FERRING B.V., priority 2008, published 2011).

Assay [1] deals with human parathyroid hormone receptor 1 (human, UniProt Q03431). The assay is described as follows: cell-based or functional assay.
The target of assay [2] is human parathyroid hormone receptor 2 (human, UniProt P49190). The assay is described as follows: cell-based or functional assay.

Starred links: 1 amine or outer side, 2 acyl side, 3 side chain; linkers in the order of their positions; H or OH if unused. Non-standard residues stand in square brackets, D forms with d. No end group written: not given here. hSer(OMe) = COCC[C@H](N[*:1])C(=O)[*:2]; 1Nal = N[C@@H](Cc1cccc2ccccc12)C(=O)O; β3hI = CC[C@H](C)[C@H](N)CC(=O)O; β3hR = N=C(N)NCCC[C@H](N)CC(=O)O; β3hF = N[C@H](CC(=O)O)Cc1ccccc1; β3hK = NCCCC[C@H](N)CC(=O)O; Nle = CCCC[C@H](N)C(=O)O; Aib = CC(C)(N)C(=O)O

On to [Aib]VSEIQL[Nle]HNLGKHLNS[β3hR]ERVE[1Nal]LRKLLQDVHNF-NH2 [[Aib^1, Nle^8, β-hArg^18, 1-Nal^23, Leu^27] hPTH (1-34)-NH2], for which the “hPTHR-1 EC50 (nM), CRE-luciferase reporter gene assay” value (“hPTHR-1 EC50 (nM)” below) in assay [1] is 0.05 nM. Further, in assay [2], the “hPTHR-2 EC50 (nM), luciferase reporter gene assay” value (from here on “hPTHR-2 EC50 (nM)”) was found to be 16 nM.
As for SVSEIQL[Nle]HSLGKHLKS[β3hI]ERVE[1Nal]LRKLLQRV-NH2 [[Nle^8, Ser^10, Lys^16, β-hIle^18, 1-Nal^23, Leu^27, Arg^30] hPTH (1-31)-NH2], the “hPTHR-1 EC50 (nM)” value in assay [1] worked out at 0.08 nM. For the same molecule, the “hPTHR-2 EC50 (nM)” value in assay [2] was determined as 7 nM.
With SVSEIQL[Nle]HSLGKHLKS[β3hI]ERVE[1Nal]LRKLLQRVHEE-NH2 [[Nle^8, Ser^10, Lys^16, β-hIle^18, 1-Nal^23, Leu^27, Arg^30, Glu^33, Glu^34] hPTH (1-34)-NH2], in assay [1], the “hPTHR-1 EC50 (nM)” value amounted to 0.04 nM. In addition, the “hPTHR-2 EC50 (nM)” value in assay [2] amounted to 6 nM.
As for SVSEIQL[Nle]HNLGKHLKS[β3hI]ERVE[1Nal]LRKLLQRVHEF-NH2 [[Nle^8, Lys^16, β-hIle^18, 1-Nal^23, Leu^27, Arg^30, Glu^33] hPTH (1-34)-NH2], in assay [1], the “hPTHR-1 EC50 (nM)” value worked out at 0.09 nM. The “hPTHR-2 EC50 (nM)” value in assay [2] was determined as 14 nM.
Regarding SVSEIQL[Nle]HNLGKHLNS[β3hF]ERVE[1Nal]LRKLLQDVHNF-NH2 [[Nle^8, β-hPhe^18, 1-Nal^23, Leu^27] hPTH (1-34)-NH2], the “hPTHR-1 EC50 (nM)” value in assay [1] is 0.11 nM. The “hPTHR-2 EC50 (nM)” value in assay [2] was determined as 10 nM.

B1: [Aib^1, Nle^8, hSer(OMe)^18, β-hLys^19, 1-Nal^23, Leu^27] hPTH (1-$$4)-NH2 (peptide)
peptide: [Aib]VSEIQL[Nle]HNLGKHLNS[hSer(OMe)][β3hK]RVE[1Nal]LRKLLQDVHNF-NH2
modifications: N-terminus assumed
SMILES: CCCC[C@H](NC(=O)[C@H](CC(C)C)NC(=O)[C@H](CCC(N)=O)NC(=O)[C@@H](NC(=O)[C@H](CCC(=O)O)NC(=O)[C@H](CO)NC(=O)[C@@H](NC(=O)C(C)(C)N)C(C)C)[C@@H](C)CC)C(=O)N[C@@H](Cc1c[nH]cn1)C(=O)N[C@@H](CC(N)=O)C(=O)N[C@@H](CC(C)C)C(=O)NCC(=O)N[C@@H](CCCCN)C(=O)N[C@@H](Cc1c[nH]cn1)C(=O)N[C@@H](CC(C)C)C(=O)N[C@@H](CC(N)=O)C(=O)N[C@@H](CO)C(=O)N[C@@H](CCOC)C(=O)N[C@@H](CCCCN)CC(=O)N[C@@H](CCCNC(=N)N)C(=O)N[C@H](C(=O)N[C@@H](CCC(=O)O)C(=O)N[C@@H](Cc1cccc2ccccc12)C(=O)N[C@@H](CC(C)C)C(=O)N[C@@H](CCCNC(=N)N)C(=O)N[C@@H](CCCCN)C(=O)N[C@@H](CC(C)C)C(=O)N[C@@H](CC(C)C)C(=O)N[C@@H](CCC(N)=O)C(=O)N[C@@H](CC(=O)O)C(=O)N[C@H](C(=O)N[C@@H](Cc1c[nH]cn1)C(=O)N[C@@H](CC(N)=O)C(=O)N[C@@H](Cc1ccccc1)C(N)=O)C(C)C)C(C)C
Take B1: the “hPTHR-1 EC50 (nM)” value in assay [1] came out at 0.05 nM. In addition, the “hPTHR-2 EC50 (nM)” value in assay [2] was 3 nM.
With SVSEIQL[Nle]HSLGKHLKS[β3hI]ERVE[1Nal]LRKLLQRVHEF-NH2 [[Nle^8, Ser^10, Lys^16, β-hIle^18, 1-Nal^23, Leu^27, Arg^30, Glu^33] hPTH(1-34)-NH2], the “hPTHR-1 EC50 (nM)” value in assay [1] came out at 0.12 nM. Besides, in assay [2], the “hPTHR-2 EC50 (nM)” value is 8 nM.
For [Aib]VSEIQL[Nle]HSLGKHLKS[β3hI]ERVE[1Nal]LRKLLQRVHEF-NH2 [[Aib^1, Nle^8, Ser^10, Lys^16, β-hIle^18, 1-Nal^23, Leu^27, Arg^30, Glu^33] hPTH (1-34)-NH2], the “hPTHR-1 EC50 (nM)” value in assay [1] was 0.09 nM. In assay [2], the “hPTHR-2 EC50 (nM)” value came to 6 nM.
Taken in the same sequence, the figures for [Aib]VSEIQL[Nle]HSLGKHLKS[β3hI]ERVE[1Nal]LRKLLQRV-NH2 [[Aib^1, Nle^8, Ser^10, Lys^16, β-hIle^18, 1-Nal^23, Leu^27, Arg^30] hPTH (1-31)-NH2] were 0.09 nM and 6 nM.
In the case of [Aib]VSEIQL[Nle]HNLGKHLNS[β3hF]ERVE[1Nal]LRKLLQDVHNF-NH2 [[Aib^1, Nle^8, β-hPhe^18, 1-Nal^23, Leu^27 hPTH (1-34)-NH2], in assay [1], the “hPTHR-1 EC50 (nM)” value was 0.06 nM. Further, the “hPTHR-2 EC50 (nM)” value in assay [2] was determined as 5 nM.
Taken in the same sequence, the figures for [Aib]VSEIQL[Nle]HNLGKHLN[β3hF][hSer(OMe)]ERVE[1Nal]LRKLLQDVHNF-NH2 [[Aib^1, Nle^8, β-hPhe^17, hSer(OMe)^18, 1-Nal^23, Leu^27] hPTH-(1-34)-NH2] were 0.1 nM and 117 nM.
For the molecule [Aib]VSEIQL[Nle]HNLGKHLKS[β3hI]ERVE[1Nal]LRKLLQRVHEF-NH2 [[Aib^1, Nle^8, Lys^16, β-hIle^18, 1-Nal^23, Leu^27, Arg^30, Glu^33] hPTH (1-34)-NH2], the “hPTHR-1 EC50 (nM)” value in assay [1] turned out to be 0.09 nM. The “hPTHR-2 EC50 (nM)” value in assay [2] is 6 nM.
